Residue numbers refer to the chain shown, from its start. In names and notes the source's numbering stands. Non-standard residues stand in square brackets, D forms with d. No end group written: not given here. pY = N[C@@H](Cc1ccc(OP(=O)(O)O)cc1)C(=O)O

What all share (assay): SPR
(In general: In SPR one partner is held on a chip, and binding of the other changes the refractive index at the surface.)

Assay [1] addresses Biotinylated CD28CD 25-mer peptide (residues 194 to 218) phosphorylated at Tyr207 (mouse).
The target of assay [2] is Lck SH2 domain (residues 122 to 226) (mouse, UniProt P06240 122-226).
Sequence of Lck SH2 domain (residues 122 to 226) (P06240 122-226): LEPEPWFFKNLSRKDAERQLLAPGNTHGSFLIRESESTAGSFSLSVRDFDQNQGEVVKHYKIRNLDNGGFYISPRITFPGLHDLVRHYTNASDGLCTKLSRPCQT
Assay [3] concerns the target Murine full-length Lck (amino acid residues 6 to 509) (mouse, UniProt P06240 6-509, phosphotyrosine at 505).

Sequence of Murine full-length Lck (amino acid residues 6 to 509) (P06240 6-509): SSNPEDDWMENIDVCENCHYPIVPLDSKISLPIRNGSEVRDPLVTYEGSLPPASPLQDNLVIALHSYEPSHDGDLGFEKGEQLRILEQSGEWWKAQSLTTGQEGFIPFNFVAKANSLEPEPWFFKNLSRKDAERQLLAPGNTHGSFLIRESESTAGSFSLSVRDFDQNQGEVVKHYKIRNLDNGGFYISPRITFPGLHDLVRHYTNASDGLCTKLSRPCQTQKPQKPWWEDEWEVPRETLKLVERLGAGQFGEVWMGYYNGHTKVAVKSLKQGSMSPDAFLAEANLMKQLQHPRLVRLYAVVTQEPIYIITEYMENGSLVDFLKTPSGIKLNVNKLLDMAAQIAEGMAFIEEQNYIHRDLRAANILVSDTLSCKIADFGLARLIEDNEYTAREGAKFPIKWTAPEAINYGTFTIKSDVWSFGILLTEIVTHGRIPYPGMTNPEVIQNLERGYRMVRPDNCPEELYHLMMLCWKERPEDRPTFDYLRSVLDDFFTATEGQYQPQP

Molecule “Lck SH2 domain (residues 122 to 226) (from UniProt P06240 122-226) (domain or fragment)” gave a Kd in assay [1] of 10 µM. As for PRRPGLTRKPYQA[pY]AAARDFAAYRP (peptide, UniProt P31041 194-218, looked up, also: biotinylated, position not given here) [Biotinylated CD28CD 25-mer peptide phosphorylated at Tyr207, double mutant P206A/P209A], the Kd in assay [2] came out at 63.7 µM.

B1: CD28WT cytoplasmic domain (CD28CD), disulfide-linked dimer (domain or fragment, mouse)
chain: CNSRRNRLLQSDYMNMTPRRPGLTRKPYQPYAPARDFAAYRP
modifications: disulfide between the added N-terminal cysteines of the two chains (oxidized with 1 mM GSSG)
On to B1, for which the Kd in assay [3] came to 0.199 µM.

B2: CD28 Mut5 cytoplasmic domain, disulfide-linked dimer (domain or fragment, mouse)
chain: B1 chain with P30A, P33A
modifications: disulfide between the added N-terminal cysteines of the two chains (oxidized with 1 mM GSSG)
B2 showed a dissociation constant Kd in assay [3] of 0.187 µM.

For orientation: Kd means the concentration at which binding is half-saturated. The low end stands for a tighter complex, the high end for a looser complex.
